Test results taken from US8110551B2 (priority 2008, dated 2012).
Where two headings read alike, the source gives them in different places.

Legend:
[1] = test system: CdtB; assay: Effect of phosphatase inhibitors on CdtB-mediated hydrolysis of PI-3,4,5-P3; assay type: biochemical, A. actinomycetemcomitans; conditions: for reduction of CdtB phosphatase activity: 0.5 μM CdtB, 30 min
Method: CdtB (0.5 μM; triangles) and PTEN (0.1 μM; circles) were incubated with liposomes containing PI-3,4,5-P3 in the presence of varying concentrations of tungstate or orthovanadate for 30 min. Phosphate release was measured using the malachite green binding assay. Results are plotted as phosphate release (nmol/30 min; mean±S.D.) versus inhibitor concentration (mM);
(§1) Phosphatase activity was assessed by monitoring the dephosphorylation of PI-3,4,5-P3 as described by Maehama et al [Maehama, T., G. Taylor, J. Slama, and J. Dixon. 2000. A sensitive assay for phosphoinositide phosphatases. Analytical Biochemistry 279:248-2501. Briefly, the reaction mixture (20 μl) consisted of 100 mM Tris-HCl (pH 8.0), 10 mM dithiothreitol, 0.5 mM diC16-phosphatidylserine (Avanti), 25 μM PI-3,4,5-P3 (diC16; Echelon) and the indicated amount of CdtB, CdtABC or PTEN (kindly provided by Gregory Taylor). Appropriate amounts of lipid solutions were deposited in 1.5 ml tubes, organic solvent removed, the buffer added and a lipid suspension formed by sonication. For experiments to determine substrate specificity, PI-3,4,5-P3 was replaced by the indicated phosphatidylinositol phosphate (Echelon). Phosphatase assays were carried out at 37° C. for 30 min; the reactions were terminated by the addition of 15 μl of 100 mM N-ethylmaleimide. Inorganic phosphate levels were then measured using a malachite green assay. Malachite green solution (Biomol Green; Biomol) was added to 100 μl of the enzyme reaction mixture and color was developed for 20 min at RT. Absorbance at 650 nm was measured and phosphate release quantified by comparison to inorganic phosphate standards.

[2] = test system: Jurkat cells; assay type: cell-based, human; conditions: 16 hr
[3] = TLC analysis of product formation after PI-3,4,5-P3 hydrolysis; assay type: biochemical; conditions: 0.5 μM CdtB or 0.1 μM PTEN, FIG. 3 inset
From the text: Analysis of CdtB-Mediated Product Formation
Inositol lipids were separated by thin layer chromatography. Silica gel G plates were dipped in boric acid (5% in methanol) and then dried. They were then spotted with the lipid samples dissolved in chloroform/methanol/water (1/2/0.1) together with solutions containing the standard inositol lipids phosphatidyl 4,5 bisphosphate, phosphatidyl 3,4 bisphosphate, phosphatidyl 3,5bis phosphate, phosphatidyl 3,4,5 trisphosphate, and phosphatidyl inositol. The plates were eluted with solutions containing propyl acetate/isopropanol/ethanol/ammonia/water (15/45/16/9/35), dried, and sprayed with solution containing CuSO4/H3PO4 (8%/10%), and air dried again. Plates were then heated to 70° C. then to 155° C. to visualize the lipids.

[4] = Substrate specificity with phosphoinositides in liposomes; assay type: biochemical; conditions: 0.5 μM CdtB, 0.1 μM PTEN; 30 min; liposomes with phosphatidylserine carrier; FIG. 3
Method: as §1, with “Malachite green solution (Biomol Green; Biomol) was added to 100 μl of the enzyme reaction mixture and color was developed for 20 min at RT.” left out
CdtB substrate specificity was assessed using several different phosphoinositides (PI). […] In order to determine whether CdtB is a 3- or 5-phosphatase, product formation was assessed using thin layer chromatography. […]

[5] = assay type: biochemical
[6] = test system: Jurkat cells; assay type: cell-based, human
[7] = Protein phosphatase activity with synthetic substrate; assay type: biochemical; conditions: synthetic substrate pNPP
[8] = test system: supercoiled pUC19 DNA; assay type: biochemical
[9] = Dephosphorylation of inositol phosphates; assay type: biochemical
[10] = 30 min, read-out: ED0.5 [concentration required to catalyze 0.5 nmol phosphate release]

[O]=[Mo](=[O])([O-])[O-] [molybdate]
inhibition of CdtB (in words) [1]: failed to inhibit

COC[C@H]1OC(=O)c2coc3c2[C@@]1(C)C1=C(C3=O)[C@@H]2CCC(=O)[C@@]2(C)C[C@H]1OC(C)=O [wortmannin]
Cdt-induced accumulation of G2 cells after pre-treatment [2]: 35%

[O]=[W](=[O])([O-])[O-] [tungstate]
reduction of CdtB phosphatase activity ([1]; 1 mM inhibitor): 15% | reduction of CdtB phosphatase activity ([1]; 10 mM inhibitor): 70%

O=c1cc(N2CCOCC2)oc2c(-c3ccccc3)cccc12 [LY290004]
Cdt-induced accumulation of G2 cells after pre-treatment [2]: 22.0%

[O]=[V]([O-])([O-])[O-] [orthovanadate]
reduction of CdtB phosphatase activity ([1]; 1 mM inhibitor): 10% | reduction of CdtB phosphatase activity ([1]; 10 mM inhibitor): 85%

PTEN: Tumor suppressor phosphatase (phosphatase and tensin homolog deleted on chromosome ten), used for comparison [reference compound]
product formed from PI-3,4,5-P3 [3]: PI-(4,5)-P2 | substrate specificity (phosphate release with phosphatidylinositol phosphates) [4]: substrate specificity for PI-(3,4,5)-P3 identical to CdtB | Km [5]: 159 µM | EC50 [5, 10]: 50 nM

B1: CdtB: Active B subunit of cytolethal distending toxin, SEQ ID NO: 3, expressed from pGEMCdtB (protein)
chain: NLSDFKVATWNLQGSSAVNESKWNINVRQLLSGEQGADILMVQEAGSLPSSAVRTSRVIQHGGTPIEEYTWNLGTRSRPNMVYIYYSRLDVGANRVNLAIVSRRQADEAFIVHSDSSVLQSRPAVGIRIGTDVFFTVHALATGGSDAVSLIRNIFTTFTSSPSSPERRGYSWMVVGDFNRAPVNLEAALRQEPAVSENTIIIAPTEPTHRSGNILDYAILHDAHLPRREQARERIGASLMLNQLRSQITSDHFPVSFVRDR
modifications: Actinobacillus actinomycetemcomitans
toxicity (G2 cell cycle arrest), dose response [6]: comparable activity | percentage of G2 cells ([6]; 18 hrs): 54.8% | protein phosphatase activity [7]: did not exhibit detectable protein phosphatase activity | product formed from PI-3,4,5-P3 [3]: PI-(3,4)-P2 | substrate specificity (phosphate release with phosphatidylinositol phosphates) [4]: only occurred in the presence of PI-3,4,5-P3 | DNase Activity (% CdtB^wt) [8]: 100 % CdtB^wt | DNase activity (in words) ([8]; 2 hrs at 37° C.): detectable nuclease activity although it was less than five orders of magnitude of that observed with bovine DNase I | dephosphorylation of inositol triphosphate or inositol tetrakisphosphate [9]: unable to dephosphorylate | Km [5]: 124 µM | PIP3 phosphatase activity (% CdtB^wt) [5]: 100 % CdtB^wt | EC50 [5, 10]: 500 nM | EC50 ([5]; read-out: ED0.5): 300 nM
